B1: HsPex11pβ-Myc (natural protein, human, UniProt O96011 1-259, looked up)
chain: MDAWVRFSAQSQARERLCRAAQYACSLLGHALQRHGASPELQKQIRQLESHLSLGRKLLRLGNSADALESAKRAVHLSDVVLRFCITVSHLNRALYFACDNVLWAGKSGLAPRVDQEKWAQRSFRYYLFSLIMNLSRDAYEIRLLMEQESSACSRRLKGSGGGVPGGSETGGLGGPGTPGGGLPQLALKLRLQVLLLARVLRGHPPLLLDVVRNACDLFIPLDKLGLWRCGPGIVGLCGLVSSILSILTLIYPWLRLKP
notes: human Pex11pβ (HsPex11pβ), peroxisomal membrane protein 11B; also called Pex11pβ-Myc (WT); wild type Pex11pβ-Myc; source: COS-7, transfected; cross-linked in cells, then in detergent extract or lysate; not shown: Myc, C-terminal, kept
B2: Pex11pβ-Myc^C18S-C25S-C85S (natural protein, human, UniProt O96011 1-259, looked up)
chain: MDAWVRFSAQSQARERLSRAAQYASSLLGHALQRHGASPELQKQIRQLESHLSLGRKLLRLGNSADALESAKRAVHLSDVVLRFSITVSHLNRALYFACDNVLWAGKSGLAPRVDQEKWAQRSFRYYLFSLIMNLSRDAYEIRLLMEQESSACSRRLKGSGGGVPGGSETGGLGGPGTPGGGLPQLALKLRLQVLLLARVLRGHPPLLLDVVRNACDLFIPLDKLGLWRCGPGIVGLCGLVSSILSILTLIYPWLRLKP
notes: human Pex11pβ with the three N-terminal cysteines replaced by serine; also called triple mutant; source: COS-7, transfected; cross-linked in cells, then in Triton X-100 extract; not shown: Myc, C-terminal, kept

Assays:
[1] = biological target: the molecule itself; assay: cross-linking; COS-7 cells fixed with 4% para-formaldehyde 24 h after transfection, postfixation extraction with 0.2% Triton X-100 (or digitonin); extracts, pellets and unfixed lysates on SDS-PAGE, anti-Myc immunoblot
[2] = biological target: the molecule itself; assay: cross-linking; data not shown: para-formaldehyde fixation, postfixation Triton X-100 extraction, immunoblot

Protein	stoichiometry N [1]	stoichiometry N [2]
B1	2	
B2		2

From article PMC3538539, “Self-Interaction of Human Pex11pβ during Peroxisomal Growth and Division” (PLoS ONE, 2013)
